Experimental findings from PMC10288911 (2023) are described below.

Test [1] deals with 6×His-tag cleaved FcRn/β2m (UniProt P55899 24-365; P61769 21-119). Description: BLI; pH 7.4; IgG immobilised. (In general: BLI is a label-free optical method that tracks binding on a fibre tip over time.)
Test [2] concerns the target FcRn/β2m heterodimers (SPR analyte) (UniProt P55899 24-365; P61769 21-119). Nature of the test: SPR; pH 7.4; IgG captured by gp120. For orientation: SPR reads the build-up and loss of mass on a sensor chip optically.
A further test has as its target 6×His-tagged FcRn/β2m (UniProt P55899 24-365; P61769 21-119). Nature of the test: BLI; pH 7.4; FcRn immobilised.

Positions count from the first letter of the chain named.

Sequence of 6×His-tag cleaved FcRn/β2m (P55899 24-365, chain 1 of 2): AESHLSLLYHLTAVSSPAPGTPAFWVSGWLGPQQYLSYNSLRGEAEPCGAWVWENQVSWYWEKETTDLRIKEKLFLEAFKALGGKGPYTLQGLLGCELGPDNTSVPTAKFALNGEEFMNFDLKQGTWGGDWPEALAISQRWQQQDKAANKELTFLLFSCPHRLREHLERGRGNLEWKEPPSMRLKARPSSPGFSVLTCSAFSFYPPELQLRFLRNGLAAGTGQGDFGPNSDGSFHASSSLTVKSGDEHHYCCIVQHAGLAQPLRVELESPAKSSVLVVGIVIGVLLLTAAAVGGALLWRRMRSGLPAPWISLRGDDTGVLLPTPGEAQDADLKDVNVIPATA
Sequence of 6×His-tag cleaved FcRn/β2m (P61769 21-119, chain 2 of 2): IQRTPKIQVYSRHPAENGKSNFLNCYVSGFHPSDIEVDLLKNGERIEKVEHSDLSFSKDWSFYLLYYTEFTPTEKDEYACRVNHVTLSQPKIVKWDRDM
Sequence of 6×His-tagged FcRn/β2m (P55899 24-365, chain 1 of 2): as the sequence (P55899 24-365, chain 1 of 2) above
Sequence of 6×His-tagged FcRn/β2m (P61769 21-119, chain 2 of 2): as the sequence (P61769 21-119, chain 2 of 2) above
Sequence of FcRn/β2m heterodimers (SPR analyte) (P55899 24-365, chain 1 of 2): as the sequence (P55899 24-365, chain 1 of 2) above
Sequence of FcRn/β2m heterodimers (SPR analyte) (P61769 21-119, chain 2 of 2): as the sequence (P61769 21-119, chain 2 of 2) above

B1: VRC07-523LS.v1 (antibody)
chain 1: QVRLSQSGGQMKKPGDSMRISCRASGYEFINCPINWIRLAPGKRPEWMGWMKPRFGAVSYARQLQGRVTMTRQLSQDPDDPDWGTAFLELRSLTSDDTAVYFCTRGKYCTARDYYNWDFEHWGQGTPVTVSS
chain 2: LTQSPGTLSLSPGETAIISCRTSQYGSLAWYQQRPGQAPRLVIYSGSTRAAGIPDRFSGSRWGPDYNLTISNLESGDFGVYYCQQYEFFGQGTKVQVD
Broadly, the Kd is the free concentration of one partner at which half of the binding sites on the other are occupied at equilibrium, for simple one-to-one binding. Take B1: the Kd stood at 180 nM in test [1], 10000 nM in test [2] and 930 nM in the test with 6×His-tagged FcRn/β2m.

B2: VRC07-523LS.v37 (antibody)
chain 1: B1 chain 1 with R23Q, K107Q
chain 2: B1 chain 2 with R21E
In the case of B2, the figures for the Kd (in test [1]; in test [2]; with 6×His-tagged FcRn/β2m) were 180 nM, 9600 nM and 5400 nM, respectively.

B3: VRC07-523LS.v23 (antibody)
chain 1: B1 chain 1
chain 2: B1 chain 2 with R21S
Take B3: the Kd turned out to be 170 nM in test [1], 3800 nM in test [2] and 1600 nM with 6×His-tagged FcRn/β2m.

B4: VRC07-523LS.v34 (antibody)
chain 1: B1 chain 1 with R23S, K107S
chain 2: B1 chain 2 with R21E
For B4, the Kd in test [1] is 170 nM; in test [2] it was 6300 nM; with 6×His-tagged FcRn/β2m, 6000 nM.
